For this assay, the target named is T1, APJ receptor (human, UniProt P35414 1-380).
T1 sequence (looked up): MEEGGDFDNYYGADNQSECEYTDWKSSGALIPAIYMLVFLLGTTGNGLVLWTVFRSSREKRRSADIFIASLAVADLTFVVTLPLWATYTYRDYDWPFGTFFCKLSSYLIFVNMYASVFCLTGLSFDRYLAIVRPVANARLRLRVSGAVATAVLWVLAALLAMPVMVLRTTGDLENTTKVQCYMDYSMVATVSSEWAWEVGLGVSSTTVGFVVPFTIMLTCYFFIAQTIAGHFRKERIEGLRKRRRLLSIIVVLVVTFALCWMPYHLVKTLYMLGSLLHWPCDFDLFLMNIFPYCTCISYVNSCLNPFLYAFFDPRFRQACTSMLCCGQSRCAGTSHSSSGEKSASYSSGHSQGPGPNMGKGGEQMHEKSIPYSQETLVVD
Briefly: cell-based or functional assay.

*1 amine or outer side, *2 acyl side, *3 side chain or, on linkers, in order; H or OH if unused. [ ]: non-standard residue; d: D form. Tyr(Bzl) = L-benzyl-tyrosine, O=C([C@H](Cc1ccc(OCc2ccccc2)cc1)N[*:1])[*:2]; Phe(3,4-Cl2) = N[C@@H](Cc1ccc(Cl)c(Cl)c1)C(=O)O; 2Nal = N[C@@H](Cc1ccc2ccccc2c1)C(=O)O; Cha = N[C@@H](CC1CCCCC1)C(=O)O; pGlu = O=C1CC[C@@H](C(=O)O)N1; dNle = CCCC[C@@H](N)C(=O)O; Nle = CCCC[C@H](N)C(=O)O; Aib = CC(C)(N)C(=O)O

B1: pE-R-P-R-Cha-a-H-K-G-P-nle-a-f-OH (peptide)
peptide: [pGlu]RPR[Cha][dA]HKGP[dNle][dA][dF]-OH
SMILES: CCCC[C@@H](NC(=O)[C@@H]1CCCN1C(=O)CNC(=O)[C@H](CCCCN)NC(=O)[C@H](Cc1c[nH]cn1)NC(=O)[C@@H](C)NC(=O)[C@H](CC1CCCCC1)NC(=O)[C@H](CCCNC(=N)N)NC(=O)[C@@H]1CCCN1C(=O)[C@H](CCCNC(=N)N)NC(=O)[C@@H]1CCC(=O)N1)C(=O)N[C@H](C)C(=O)N[C@H](Cc1ccccc1)C(=O)O
Turning to B1, the “hAPJ Ca^2+ Flux EC50” value is 2.8 nM.

B2: pE-R-P-R-L-a-H-K-G-P-nle-a-y-OH (peptide)
peptide: [pGlu]RPRL[dA]HKGP[dNle][dA][dY]-OH
SMILES: CCCC[C@@H](NC(=O)[C@@H]1CCCN1C(=O)CNC(=O)[C@H](CCCCN)NC(=O)[C@H](Cc1c[nH]cn1)NC(=O)[C@@H](C)NC(=O)[C@H](CC(C)C)NC(=O)[C@H](CCCNC(=N)N)NC(=O)[C@@H]1CCCN1C(=O)[C@H](CCCNC(=N)N)NC(=O)[C@@H]1CCC(=O)N1)C(=O)N[C@H](C)C(=O)N[C@H](Cc1ccc(O)cc1)C(=O)O
Take B2: the “hAPJ Ca^2+ Flux EC50” value was determined as 0.9 nM.
Under ERPRLAHKGPLA (pE at 1; D-Ala at 6; D-Nle at 11; D-Ala at 12; C-terminal NH(Phenethyl) amide) [pE-R-P-R-L-a-H-K-G-P-nle-a-NH(Phenethyl)] stands 16.2 nM.

B3: pE-R-P-R-(2-Nal)-a-H-K-G-P-nle-a-f-OH (peptide)
peptide: [pGlu]RPR[2Nal][dA]HKGP[dNle][dA][dF]-OH
SMILES: CCCC[C@@H](NC(=O)[C@@H]1CCCN1C(=O)CNC(=O)[C@H](CCCCN)NC(=O)[C@H](Cc1c[nH]cn1)NC(=O)[C@@H](C)NC(=O)[C@H](Cc1ccc2ccccc2c1)NC(=O)[C@H](CCCNC(=N)N)NC(=O)[C@@H]1CCCN1C(=O)[C@H](CCCNC(=N)N)NC(=O)[C@@H]1CCC(=O)N1)C(=O)N[C@H](C)C(=O)N[C@H](Cc1ccccc1)C(=O)O
In the case of B3, the “hAPJ Ca^2+ Flux EC50” value is 69.2 nM.
Under [pGlu][dR]PRL[dA]HKGP[dNle][dA][dF]-OH [pE-r-P-R-L-a-H-K-G-P-nle-a-f-OH] stands 796 nM.

B4: pE-R-P-R-L-S-Aib-K-G-P-nle-a-F-OH (peptide)
peptide: [pGlu]RPRLS[Aib]KGP[dNle][dA]F-OH
SMILES: CCCC[C@@H](NC(=O)[C@@H]1CCCN1C(=O)CNC(=O)[C@H](CCCCN)NC(=O)C(C)(C)NC(=O)[C@H](CO)NC(=O)[C@H](CC(C)C)NC(=O)[C@H](CCCNC(=N)N)NC(=O)[C@@H]1CCCN1C(=O)[C@H](CCCNC(=N)N)NC(=O)[C@@H]1CCC(=O)N1)C(=O)N[C@H](C)C(=O)N[C@@H](Cc1ccccc1)C(=O)O
Turning to B4, the “hAPJ Ca^2+ Flux EC50” value was determined as 3.9 nM.

B5: pE-R-P-R-L-a-H-K-G-P-nle-e-f-OH (peptide)
peptide: [pGlu]RPRL[dA]HKGP[dNle][dE][dF]-OH
SMILES: CCCC[C@@H](NC(=O)[C@@H]1CCCN1C(=O)CNC(=O)[C@H](CCCCN)NC(=O)[C@H](Cc1c[nH]cn1)NC(=O)[C@@H](C)NC(=O)[C@H](CC(C)C)NC(=O)[C@H](CCCNC(=N)N)NC(=O)[C@@H]1CCCN1C(=O)[C@H](CCCNC(=N)N)NC(=O)[C@@H]1CCC(=O)N1)C(=O)N[C@H](CCC(=O)O)C(=O)N[C@H](Cc1ccccc1)C(=O)O
Turning to B5, the “hAPJ Ca^2+ Flux EC50” value came to 170 nM.

B6: pE-R-P-R-L-S-Aib-K-G-P-Nle-a-f-OH (peptide)
peptide: [pGlu]RPRLS[Aib]KGP[Nle][dA][dF]-OH
SMILES: CCCC[C@H](NC(=O)[C@@H]1CCCN1C(=O)CNC(=O)[C@H](CCCCN)NC(=O)C(C)(C)NC(=O)[C@H](CO)NC(=O)[C@H](CC(C)C)NC(=O)[C@H](CCCNC(=N)N)NC(=O)[C@@H]1CCCN1C(=O)[C@H](CCCNC(=N)N)NC(=O)[C@@H]1CCC(=O)N1)C(=O)N[C@H](C)C(=O)N[C@H](Cc1ccccc1)C(=O)O
B6: the “hAPJ Ca^2+ Flux EC50” value amounted to 3.3 nM.
Under [pGlu]RPRL[dA]HKGP[Nle][dA]F-OH [pE-R-P-R-L-a-H-K-G-P-Nle-a-F-OH] stands 4.5 nM; under ERPRLAHKGPLAX (pE at 1; D-Ala at 6; D-Nle at 11; D-Ala at 12; D-Tic at 13) [pE-R-P-R-L-a-H-K-G-P-nle-a-tic-OH], 1.7 nM.

B7: pE-R-P-R-L-a-F-K-G-P-nle-a-f-OH (peptide)
peptide: [pGlu]RPRL[dA]FKGP[dNle][dA][dF]-OH
SMILES: CCCC[C@@H](NC(=O)[C@@H]1CCCN1C(=O)CNC(=O)[C@H](CCCCN)NC(=O)[C@H](Cc1ccccc1)NC(=O)[C@@H](C)NC(=O)[C@H](CC(C)C)NC(=O)[C@H](CCCNC(=N)N)NC(=O)[C@@H]1CCCN1C(=O)[C@H](CCCNC(=N)N)NC(=O)[C@@H]1CCC(=O)N1)C(=O)N[C@H](C)C(=O)N[C@H](Cc1ccccc1)C(=O)O
Consider B7, for which the “hAPJ Ca^2+ Flux EC50” value was found to be 3.1 nM.

B8: pE-R-P-R-Y-a-H-K-G-P-nle-a-f-OH (peptide)
peptide: [pGlu]RPRY[dA]HKGP[dNle][dA][dF]-OH
SMILES: CCCC[C@@H](NC(=O)[C@@H]1CCCN1C(=O)CNC(=O)[C@H](CCCCN)NC(=O)[C@H](Cc1c[nH]cn1)NC(=O)[C@@H](C)NC(=O)[C@H](Cc1ccc(O)cc1)NC(=O)[C@H](CCCNC(=N)N)NC(=O)[C@@H]1CCCN1C(=O)[C@H](CCCNC(=N)N)NC(=O)[C@@H]1CCC(=O)N1)C(=O)N[C@H](C)C(=O)N[C@H](Cc1ccccc1)C(=O)O
For B8, the “hAPJ Ca^2+ Flux EC50” value came out at 114 nM.

B9: pE-R-P-R-L-a-H-K-G-P-nle-a-d-OH (peptide)
peptide: [pGlu]RPRL[dA]HKGP[dNle][dA][dD]-OH
SMILES: CCCC[C@@H](NC(=O)[C@@H]1CCCN1C(=O)CNC(=O)[C@H](CCCCN)NC(=O)[C@H](Cc1c[nH]cn1)NC(=O)[C@@H](C)NC(=O)[C@H](CC(C)C)NC(=O)[C@H](CCCNC(=N)N)NC(=O)[C@@H]1CCCN1C(=O)[C@H](CCCNC(=N)N)NC(=O)[C@@H]1CCC(=O)N1)C(=O)N[C@H](C)C(=O)N[C@H](CC(=O)O)C(=O)O
With B9, the “hAPJ Ca^2+ Flux EC50” value came out at 86.8 nM.
Turning to [pGlu]RPRL[dA]HKGP[Nle][dA][dF]-OH [pE-R-P-R-L-a-H-K-G-P-Nle-a-f-OH], the “hAPJ Ca^2+ Flux EC50” value is 2.4 nM.

B10: pE-R-P-R-L-a-H-K-G-P-nle-r-f-OH (peptide)
peptide: [pGlu]RPRL[dA]HKGP[dNle][dR][dF]-OH
SMILES: CCCC[C@@H](NC(=O)[C@@H]1CCCN1C(=O)CNC(=O)[C@H](CCCCN)NC(=O)[C@H](Cc1c[nH]cn1)NC(=O)[C@@H](C)NC(=O)[C@H](CC(C)C)NC(=O)[C@H](CCCNC(=N)N)NC(=O)[C@@H]1CCCN1C(=O)[C@H](CCCNC(=N)N)NC(=O)[C@@H]1CCC(=O)N1)C(=O)N[C@H](CCCNC(=N)N)C(=O)N[C@H](Cc1ccccc1)C(=O)O
Consider B10, for which the “hAPJ Ca^2+ Flux EC50” value came out at 922 nM.

B11: pE-R-P-R-(D-Leu)-S-Aib-K-G-P-nle-a-f-OH (peptide)
peptide: [pGlu]RPR[dL]S[Aib]KGP[dNle][dA][dF]-OH
SMILES: CCCC[C@@H](NC(=O)[C@@H]1CCCN1C(=O)CNC(=O)[C@H](CCCCN)NC(=O)C(C)(C)NC(=O)[C@H](CO)NC(=O)[C@@H](CC(C)C)NC(=O)[C@H](CCCNC(=N)N)NC(=O)[C@@H]1CCCN1C(=O)[C@H](CCCNC(=N)N)NC(=O)[C@@H]1CCC(=O)N1)C(=O)N[C@H](C)C(=O)N[C@H](Cc1ccccc1)C(=O)O
Take B11: the “hAPJ Ca^2+ Flux EC50” value is 5 nM.
Under [pGlu]RPRL[dA]HKGP[dNle][dA][dF]-NH2 [pE-R-P-R-L-a-H-K-G-P-nle-a-f-NH2] stands 14.8 nM; under ERPRLAHKGPLPF (pE at 1; D-Ala at 6; Nle (L-norleucine) at 11; D-Phe at 13) [pE-R-P-R-L-a-H-K-G-P-Nle-P-f-OH], 34.5 nM; under ERPRLAHKGPLF (pE at 1; D-Ala at 6; Nle (L-norleucine) at 11; D-Phe at 12) [pE-R-P-R-L-a-H-K-G-P-Nle-f-OH], 10.7 nM.

B12: pE-R-P-R-(D-Leu)-S-a-K-G-P-nle-a-f-OH (peptide)
peptide: [pGlu]RPR[dL]S[dA]KGP[dNle][dA][dF]-OH
SMILES: CCCC[C@@H](NC(=O)[C@@H]1CCCN1C(=O)CNC(=O)[C@H](CCCCN)NC(=O)[C@@H](C)NC(=O)[C@H](CO)NC(=O)[C@@H](CC(C)C)NC(=O)[C@H](CCCNC(=N)N)NC(=O)[C@@H]1CCCN1C(=O)[C@H](CCCNC(=N)N)NC(=O)[C@@H]1CCC(=O)N1)C(=O)N[C@H](C)C(=O)N[C@H](Cc1ccccc1)C(=O)O
Turning to B12, the “hAPJ Ca^2+ Flux EC50” value was determined as 386 nM.
Under [pGlu]RPR[Tyr(Bzl)][dA]HKGP[dNle][dA][dF]-OH [pE-R-P-R-Y(Bzl)-a-H-K-G-P-nle-a-f-OH] stands 121 nM.

B13: pE-R-P-R-(3,4-Cl2-F)-a-H-K-G-P-nle-a-f-OH (peptide)
peptide: [pGlu]RPR[Phe(3,4-Cl2)][dA]HKGP[dNle][dA][dF]-OH
SMILES: CCCC[C@@H](NC(=O)[C@@H]1CCCN1C(=O)CNC(=O)[C@H](CCCCN)NC(=O)[C@H](Cc1c[nH]cn1)NC(=O)[C@@H](C)NC(=O)[C@H](Cc1ccc(Cl)c(Cl)c1)NC(=O)[C@H](CCCNC(=N)N)NC(=O)[C@@H]1CCCN1C(=O)[C@H](CCCNC(=N)N)NC(=O)[C@@H]1CCC(=O)N1)C(=O)N[C@H](C)C(=O)N[C@H](Cc1ccccc1)C(=O)O
As for B13, the “hAPJ Ca^2+ Flux EC50” value came out at 13.8 nM.

B14: pE-R-P-R-L-a-H-K-G-P-nle-F-OH (peptide)
peptide: [pGlu]RPRL[dA]HKGP[dNle]F-OH
SMILES: CCCC[C@@H](NC(=O)[C@@H]1CCCN1C(=O)CNC(=O)[C@H](CCCCN)NC(=O)[C@H](Cc1c[nH]cn1)NC(=O)[C@@H](C)NC(=O)[C@H](CC(C)C)NC(=O)[C@H](CCCNC(=N)N)NC(=O)[C@@H]1CCCN1C(=O)[C@H](CCCNC(=N)N)NC(=O)[C@@H]1CCC(=O)N1)C(=O)N[C@@H](Cc1ccccc1)C(=O)O
As for B14, the “hAPJ Ca^2+ Flux EC50” value stood at 66.5 nM.
With [pGlu]RPRL[dA]H[dK]GP[Nle][dA][dF]-OH [pE-R-P-R-L-a-H-k-G-P-Nle-a-f-OH], the “hAPJ Ca^2+ Flux EC50” value amounted to 99 nM.
